Test results reported in IntAct's records for PubMed 12084833.

B1: Regulatory protein NPR1 (Arabidopsis thaliana (Mouse-ear cress)), P93002 (parent)
chain: MDTTIDGFADSYEISSTSFVATDNTDSSIVYLAAEQVLTGPDVSALQLLSNSFESVFDSPDDFYSDAKLVLSDGREVSFHRCVLSARSSFFKSALAAAKKEKDSNNTAAVKLELKEIAKDYEVGFDSVVTVLAYVYSSRVRPPPKGVSECADENCCHVACRPAVDFMLEVLYLAFIFKIPELITLYQRHLLDVVDKVVIEDTLVILKLANICGKACMKLLDRCKEIIVKSNVDMVSLEKSLPEELVKEIIDRRKELGLEVPKVKKHVSNVHKALDSDDIELVKLLLKEDHTNLDDACALHFAVAYCNVKTATDLLKLDLADVNHRNPRGYTVLHVAAMRKEPQLILSLLEKGASASEATLEGRTALMIAKQATMAVECNNIPEQCKHSLKGRLCVEILEQEDKREQIPRDVPPSFAVAADELKMTLLDLENRVALAQRLFPTEAQAAMEIAEMKGTCEFIVTSLEPDRLTGTKRTSPGVKIAPFRILEEHQSRLKALSKTVELGKRFFPRCSAVLDQIMNCEDLTQLACGEDDTAEKRLQKKQRYMEIQETLKKAFSEDNLELGNSSLTDSTSSTSKSTGGKRSNRKLSHRRR
partner: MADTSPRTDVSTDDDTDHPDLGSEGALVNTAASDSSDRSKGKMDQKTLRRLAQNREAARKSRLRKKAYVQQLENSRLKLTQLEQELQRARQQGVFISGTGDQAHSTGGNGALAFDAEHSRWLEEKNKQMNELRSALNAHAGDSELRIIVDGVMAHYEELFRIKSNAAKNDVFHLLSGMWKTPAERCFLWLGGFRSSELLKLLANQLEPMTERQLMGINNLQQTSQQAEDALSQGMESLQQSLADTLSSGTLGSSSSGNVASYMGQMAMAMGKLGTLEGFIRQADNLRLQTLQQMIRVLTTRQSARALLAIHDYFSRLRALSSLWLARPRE

Variants of: B1
Conditions: with tga2_arath TGA2, P43273

Variant	effect of a mutation on the interaction
C150Y	disrupting interaction
